Test results published in the supplement of paper PMC9170038.

System: MS2 coat protein
Assay: apparent KD of MS2 coat protein; designed switch direction (-1 OFF switch, 1 ON switch): 1; higher = weaker reporter binding
Procedure, shortened: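 Designed RNA switches with common flanks were transcribed on Illumina chips by stalled E. coli RNA polymerase and titrated with SNAP-549-labelled MS2 coat protein, from 0.7 or 1.5 nM doubling to 3 µM, in Tris-HCl pH 7.5 buffer with KCl, MgCl2, BSA, DTT, tRNA and Tween-20. Steps lasted 0.8–1.5 h (lowest) to 10–20 min (highest). Titrations ran without input, with 200 uM small-molecule ligand, or with an oligonucleotide input. Normalised cluster fluorescence was curve-fitted, and apparent KD is the per-design median over clusters.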

[1] = Eterna round: R95, input ligand: FMN 200 uM
[2] = Eterna round: R95, input ligand: microRNA oligo, concentration not stated
[3] = Eterna round: R95, input ligand: none
[4] = input ligand: microRNA oligo, concentration not stated

| Sequence | apparent KD of MS2 coat protein [1] | apparent KD of MS2 coat protein [2] | apparent KD of MS2 coat protein [3] | apparent KD of MS2 coat protein (input ligand: FMN 200 uM) | apparent KD of MS2 coat protein [4] | apparent KD of MS2 coat protein (input ligand: none) |
| --- | --- | --- | --- | --- | --- | --- |
| GGGUGUGGAAGGAAAGACAGGGAAAGGAAACAUGAGGAUCACCCAUGUGAAGGAAGAAAGGGAGCUCGUCUUAUAAG [JR_SHM208A_Sub002] (puzzle: Sensor for hsa-mir-208a) | 26 nM | 27.6 nM | 35 nM | – | – | – |
| GCUUGCGGCGCAGGAUAUGGGUGCCUGUACAUGAGGAUCACCCAUGUUAAGGGACGGAAAACGAACCAGAAGGGCGUCGCGAGC [Inraeded] (Eterna round: R96, puzzle: Same State NG 2) | – | – | – | 84.9 nM | 218 nM | 1280 nM |
| AUAAAACAUGAGGAUCACCCAUGUCAACAAAGAUGAGGAUAUGUACAGACUUCGGUCUGUACAGAAGGCAUAUAAU [salish99_ss1_r3_099] (puzzle: Same State 1) | 15.4 nM | 15.2 nM | 13.9 nM | – | – | – |
| AGCGCGGUCUCGCAGGAUAUCCACAAUCCUACAUGAGGAUCACCCAUGUCGCUGCAGGAUAUUAGGGAGAAGGGUGAUGCCGCGC [Riorge] (puzzle: Same State 2) | – | 25.2 nM | – | – | – | – |
| GUGGUCAGACAUGAGGAUCACCCAUGUGGAAUAAAUAAGGGUCAGGAUAUCUAAUAUAGGAUAUAAGAGAAGGGAUGGUUGGUG (Eterna round: R96, puzzle: Same State NG 3) | – | – | – | 89.2 nM | 89.4 nM | 82.7 nM |
| CAGUGCUGUUGAGAGGAUAUGCGGUGAUGGACAUGAGGAUCACCCAUGUUAGCGACAGCGUUACGGCAGAAGGCUCUACCCACUG [Soteed Omei mod 48] (puzzle: Same State 2) | – | 39.1 nM | – | – | – | – |
| UACUAUCUAUCUCAGGAUAUCAUGUCAAAGACAUGAGGAUCACCCAUGUACCAGGAAACUGGUUAUGAGAAGGGAGAUAGAUAGU [Mat - Same State 2 - Mod - D40] (puzzle: Same State 2) | 160 nM | 53.2 nM | 249 nM | – | – | – |
| UGUAUACAUGAGGAUCACCCAUGUCAACGUAGUCGAGGAUAUGGGCAGCCGUGAGGCGUACCAGAAGGCGAAGAGG [JL-ss1-3.05 ViennaUCT mod] (Eterna round: R96, puzzle: Same State 1) | – | – | – | 36.5 nM | 104 nM | 151 nM |
| AAUCGUUUGAUAGGAUAUCGCUAUACAUGAGGAUCACCCAUGUUUACCACACUGGUUUUUCGUACCGAGAAGGAUUCUGAUGAU [JL JR sub007 mod 9] (Eterna round: R96, puzzle: Same State NG 2) | – | – | – | 40.2 nM | 33.1 nM | 43.5 nM |
| GAGUAGUUGGGAGGAUAUCGAUUGUUAUAGAAUCGAGAAGGUCCUAACAUGAGGAUCACCCAUGUAGGACUAUUCCUGUGUAUC [Parity 75 - Jieux - Same State NG 1] (Eterna round: R96, puzzle: Same State NG 1) | – | – | – | 9.81 nM | 7.5 nM | 10.6 nM |
| CGCCAGAGAGCAGGAUAUGGGCCACGGCCUAAGGGCUGUGGACUCACAUGAGGAUCACCCAUGUCCCAGAAGGGCUCCUGGCUA [Usarbebi] (Eterna round: R96, puzzle: Same State NG 2) | – | – | – | 18.1 nM | 128 nM | 174 nM |
| CGUAGGUAGCUGGAGGAUAUUCGAGUGGUAACAUGAGGAUCACCCAUGUGGAGAGAGGAACAUGAGGAGAAGGCUAGCUGCCUGC [JL-ss2-3.19 JL mod] (puzzle: Same State 2) | 8.36 nM | 21.7 nM | 16.7 nM | – | – | – |
| ACAAGCUUUUUGCUCCUCUUAUGUCCGAAACAUGAGGAUCACCCAUGUAUAGAUUGUGUGUUGUUGUAGAUGCAAGA [JR_SHM208A_Sub061] (Eterna round: R96, puzzle: Sensor for hsa-mir-208a) | – | – | – | 73.8 nM | 63.4 nM | 74.1 nM |
| AGCUAUGGAAAACUAUAGCAAAAGUAUGUACAUGAGGAUCACCCAUGUCAUGUACAAGCUUUUUGCUCGUCUUAAAA [ak 6 mod of one Eli's designs.] (puzzle: Sensor for hsa-mir-208a) | 201 nM | 18.6 nM | 189 nM | – | – | – |
| UCUUGGUUUUUGCUCGUUUUUUGUGUUGAACAUGAGGAUCACCCAUGUAUUGUACGGUCCAAUUUGAUAAUGGUCCG [JMF 27] (puzzle: Sensor for hsa-mir-208a) | 25.1 nM | 13.9 nM | 25.6 nM | – | – | – |
| UUAAUUUACUGAGGAUAUCGUGUCGACUGAGUUGACAUGAGGAUCACCCAUGUGAGAAGUGGUAUCGAGAAGGCAGUAUUCAUA [JR_SSNG2_Sub023] (Eterna round: R96, puzzle: Same State NG 2) | – | – | – | 16.1 nM | 28.9 nM | 42 nM |
